Test results reported in US20220323495A1 (NATIONAL RESEARCH COUNCIL OF CANADA, published 2022).
No end group written: not given here.

How the values were obtained:
[1] = target: T1, human EGFRvIII amino acid residues 1 to 18, yeast-displayed (human, not fully specified); assay: yeast display; smallest EGFRvIII fragment the antibody was able to bind
T1 construct: also called aa 1-18
T1 peptide: LEEKKGNYVVTDHGSCVR
Excerpt: Assessment of the binding of anti-EGFRvIII monoclonal antibodies to the fusion proteins expressed on yeast cell surface was done by flow cytometry analysis. Yeast cells were labeled with both the anti-EGFRvIII monoclonal antibody and chicken anti-Myc antibody the latter being used to monitor the level of expression of the fusion protein. Following a wash step, binding of the primary antibodies is probed by a two-color indirect fluorescence labeling using a specific mouse and chicken secondary antibodies for each of the primary antibody respectively.

[2] = target: T2, recombinant human wild-type EGFR protein, denatured (human, UniProt P00533 25-645); assay: ELISA on coated denatured recombinant antigen; Exp 2, purified mAb 1 µg/ml
T2 construct: Same protein as m11 after denaturation (95 °C for 5 min in PBS with 40 mM DTT); also called EGFRwt Denatured
Experimental: (§1) Pre- and post-immune sera titers of animals were assessed by ELISA on recombinant EGFRvIII protein. Unless otherwise stated, all incubations were performed at room temperature. Briefly, half-area 96-well plates (Costar #3690) were coated with 25 μl per well of immunogen at 5 μg/ml in PBS and incubated overnight at 4° C. Microplates were washed three times in PBS and blocked for 30 min with PBS containing 1% bovine serum albumin (BSA, Sigma Cat#A7030). Blocking buffer was removed and 25 μl of serial dilutions of sera samples were added. After a 2-h incubation, microplates were washed 4 times with PBS-TWEEN™ 20 0.05% and 25 μl of a 1/5,000 dilution of alkaline phosphatase conjugated F(ab′)′₂ goat anti-mouse IgG (H+L, #115-056-062, Jackson Immunoresearch, Cedarlane, Burlington, ON) in blocking buffer was added. After a 1-h incubation, microplates were washed 4 times and 25 μl of p-nitrophenyl phosphate (pNPP) substrate (Sigma-Aldrich Canada Co., Oakville, ON) at 1 mg/ml in carbonate buffer at pH 9.6 was added and further incubated for 30 min. Absorbance was read at 405 nm using a SpectraMax 340 PC plate reader (Molecular Devices, Sunnyvale, Calif.).
(§2) To evaluate if monoclonal antibodies bind to a conformational epitope, an ELISA analysis on native and denatured recombinant human wild-type EGFR and EGFRvIII proteins were performed. […] Antigens at 1-2 mg/ml were denatured by incubation at 95° C. for 5 min in PBS containing DTT at 40 mM final concentration. They were then incubated on ice for 5 min and diluted at their final coating concentration for ELISA purpose.
(§3) mAbs were purified using HiTrap ProteinG HP 1 mL columns GE Healthcare cat no. 17-0404-01 and desalted using Zeba-spin desalting columns 5 mL (Pierce) pre-equilibrated in PBS and filter sterilized through […] membrane (Millipore). The final concentration of the antibody solutions was determined using a Nano-drop 2000 (ThermoScientific), using IgG as sample type. ELISA was performed as described above (serum titer determination) using 25 μl of mAb supernatant (Exp 1) or purified mAb at 1 μg/ml (Exp 2).

[3] = target: T3, recombinant human EGFRvIII protein, denatured (human, UniProt P00533 298-623); assay: as above
T3 construct: Same protein as m9 after denaturation (95 °C for 5 min in PBS with 40 mM DTT); also called EGFRvIII Denatured
Experimental: as §1, §2, §3

[4] = target: T4, recombinant human EGFRvIII protein, native (human, UniProt P00533 298-623); assay: ELISA on coated native recombinant antigen; Exp 1, mAb supernatant
T4 construct: Recombinant extracellular domain used as immunogen and ELISA coat; also called EGFRvIII Native
Experimental: as §1, §2, §3

[5] = target: T5, recombinant human wild-type EGFR protein, native (human, UniProt P00533 25-645); assay: as above
T5 construct: Recombinant protein used as ELISA coat; also called EGFRwt; wt EGFR
Experimental: as §1, §2, §3

[6] = target: T4, recombinant human EGFRvIII protein, …; assay: ELISA on coated native recombinant antigen; Exp 2, purified mAb 1 µg/ml
Experimental: as §1, §2, §3

[7] = target: T5, recombinant human wild-type EGFR …; assay: as above
Experimental: as §1, §2, §3

[8] = target: T6, wild-type human EGFR expressed on cells (U87MG overexpressing wild-type human EGFR) (human, UniProt P00533 25-645); assay: flow cytometry, hybridoma supernatant on U87MG-EGFR WT cells
T6 construct: Full length wt EGFR on cells; also called U87MG-EGFR WT; U87 WT
Experimental: Prior to analysis, cells were plated such that they were not more than 80% confluent on the day of analysis. Unless otherwise stated, all media are kept are 4° C. and all incubations are performed on wet ice.

[9] = target: T3, recombinant human EGFRvIII protein, …; assay: ELISA on coated denatured recombinant antigen; Exp 1, mAb supernatant
Experimental: as §1, §2, §3

B1: F271-1D2 anti-EGFRvIII monoclonal antibody (antibody, V domains shown)
VH: DVQLQESGPDLVKPSQSLSLTCTVTGYSITSGYSWHWIRQFPGNKLEWMGYIHYSGSTNYNPSLKSRISITRDTSKNQFFLQLSSVTTEDTATYYCTRSPYFDVWGTGTTVTVSS
VL: DVVMTQTPLSLPVSLGDQASISCRSSQSLVHSDGNTYLHWYLQKPGQSPKLLIYKVSNRFSGVPDRFSGSGSGTDFTLKISRVEAEDLGVYFCSQSTHVPWTFGGGTKLEIK
notes: Mouse hybridoma IgG, tested as supernatant or Protein G purified mAb
[1]
  binding result: binds
[2]
  ELISA absorbance (405 nm): 0 A405
[3]
  ELISA absorbance (405 nm): 1.05 A405
[4]
  ELISA absorbance (405 nm): 1.49 A405
[5]
  ELISA absorbance (405 nm): 0.002 A405
[6]
  ELISA absorbance (405 nm): 0.935 A405
[7]
  ELISA absorbance (405 nm): 0.004 A405
[8]
  binding result: no binding
[9]
  ELISA absorbance (405 nm): 2.55 A405
